From patent publication US20240390422A1 (QUELL THERAPEUTICS, published 2024)

Biological target: T1, Biotinylated Human TREM2 Protein,His,Avitag (TR2-H82E7, ACRObiosystems) (human, UniProt Q9NZC2 19-174, biotinylated (Avitag))
T1 construct: Bought protein; also called huTREM2,Biotin,His,Avitag; Biotinylated human TREM2 protein with a streptavidin tag; not shown: His tag and Avitag
T1 sequence (looked up): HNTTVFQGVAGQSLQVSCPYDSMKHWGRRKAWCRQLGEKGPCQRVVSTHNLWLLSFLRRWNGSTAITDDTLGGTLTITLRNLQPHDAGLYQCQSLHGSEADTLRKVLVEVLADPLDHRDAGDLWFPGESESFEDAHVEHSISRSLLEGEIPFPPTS
Test: flow cytometry: CAR-transduced Jurkat NFAT cells stained with Biotinylated Human TREM2 Protein and Streptavidin APC; also sorted with the protein and streptavidin beads
Source text: Constructs 3, 7, 8 and 10 are all constructs of the present invention, which comprise a CAR comprising a TREM2 scFv. Non-transduced cells (mock) and transduced cells were collected and stained for flow cytometry using Biotinylated Human TREM2 Protein (TR2-H82E7 ACRObiosystems) and Streptavidin APC as a secondary antibody. Cells were sorted using Streptavidin magnetic beads, columns (miltenyi) and Biotinylated Human TREM2 Protein (TR2-H82E7 ACRObiosystems).
On day 4 after transduction, Jurkat NFAT cells were stained for surface expression of the anti-TREM2 CARs using Biotinylated Human TREM2 Protein (TR2-H82E7 ACRObiosystems) and Streptavidin-APC as a secondary antibody. On day 7, CAR expressing cells were selected using Streptavidin magnetic beads (Streptavidin MicroBeads, 130-048-101, Miltenyi), columns (Miltenyi) and Biotinylated Human TREM2 Protein (TR2-H82E7 ACRObiosystems) and then used for subsequent activation assays.

B1: construct 3 (anti-TREM2 CAR comprising a TREM2 scFv) (other)
chain: EVQLVQSGAEVKKPGESLKISCKGSGYTFTSYWIGWVRQMPGKGLEWMGIIYPGDSDTRYSPSFQGQVTISVDKSSSTAYLQWSSLKASDTAIYYCTRQAIAVTGLGGFDPWGQGTLVTVSSGGGGSGGGGSGGGGSEIVLTQSPGTLSLSPGERATLSCRASQSVSSSYLAWYQQKPGQAPRLLIYGASSRATGIPDRFSGSGSGTDFTLTISRLEPEDFALYYCQQYDTSPFTFGPGTKVDIKLRVFSSVVPVLQKVNSTTTKPVLRTPSPVHPTGTSQPQRPEDCRPRGSVKGTGLDFACDIYIWAPLAGICVALLLSLIITLICYHRQLWTNSRRNRLLQSDYMNMTPRRPGLTRKPYQPYAPARDFAAYRPRAKFSRSAETAANLQDPNQLYNELNLGRREEYDVLEKKRARDPEMGGKQQRRRNPQEGVYNALQKDKMAEAYSEIGTKGERRRGKGHDGLYQGLSTATKDTYDALHMQTLAPR
notes: Chimeric antigen receptor with an anti-TREM2 scFv, expressed on the surface of Jurkat NFAT cells or murine Tregs after retroviral transduction; the construct also encodes GFP
binding result: binds

B2: construct 8 (anti-TREM2 CAR comprising a TREM2 scFv) (other)
chain: QVQLVQSGAEVKKPGASVKVSCKASGYTFTGYHMSWVRQAPGQGLEWMGVINPVSGNTVYAQKFQGRVTMTRDTSISTAYMELSRLRSEDTAVYYCARIPSYTYAFDYWGQGTLVTVSSGGGGSGGGGSGGGGSDIQMTQSPSSLSASVGDRVTITCRASQDISNYLAWYQQKPGKAPKLLIYRASSLQSGVPSRFSGSGSGTDFTLTISSLQPEDFATYYCQQHGHSPTTFGQGTKVEIKLRVFSSVVPVLQKVNSTTTKPVLRTPSPVHPTGTSQPQRPEDCRPRGSVKGTGLDFACDIYIWAPLAGICVALLLSLIITLICYHRQLWTNSRRNRLLQSDYMNMTPRRPGLTRKPYQPYAPARDFAAYRPRAKFSRSAETAANLQDPNQLYNELNLGRREEYDVLEKKRARDPEMGGKQQRRRNPQEGVYNALQKDKMAEAYSEIGTKGERRRGKGHDGLYQGLSTATKDTYDALHMQTLAPR
notes: the construct also encodes GFP
binding result: binds

B3: construct 7 (anti-TREM2 CAR comprising a TREM2 scFv) (other)
chain: QVQLQQSGPGLVKPSQTLSLTCAISGDSVSSSSAAWNWIRQSPSRGLEWLGHIGYRSKWYNEYAVSVKSRITINPDTSKNQFSLQLNSVTPEDTAVYYCARGMYGSVPYKEGYYFDIWGQGTLVTVSSGGGGSGGGGSGGGGSDIQMTQSPSSLSASVGDRVTITCRASQGISSDLNWYQQKPGKAPKLLIYAASNLQSGVPSRFSGSGSGTDFTLTISSLQPEDFATYYCQQYTDESMTFGQGTKVEIKLRVFSSVVPVLQKVNSTTTKPVLRTPSPVHPTGTSQPQRPEDCRPRGSVKGTGLDFACDIYIWAPLAGICVALLLSLIITLICYHRQLWTNSRRNRLLQSDYMNMTPRRPGLTRKPYQPYAPARDFAAYRPRAKFSRSAETAANLQDPNQLYNELNLGRREEYDVLEKKRARDPEMGGKQQRRRNPQEGVYNALQKDKMAEAYSEIGTKGERRRGKGHDGLYQGLSTATKDTYDALHMQTLAPR
notes: as for B1
binding result: binds

B4: construct 10 (anti-TREM2 CAR comprising a TREM2 scFv) (other)
chain: EVQLLESGGGLVQPGGSLRLSCAASGFTFSNYYMAWVRQAPGKGLEWVSSLTNSGGSTYYADSVKGRFTISRDNSKNTLYLQMNSLRAEDTAVYYCTREWAGSGYFDYWGQGTLVTVSSGGGGSGGGGSGGGGSDIQMTQSPSSLSASVGDRVTMTCKASQNVGNNLAWYQQKPGKAPKLLLYYTSNRFTGVPSRFSGSGSGTDFTLTISSVQPEDFATYYCQRIYNSPWTFGQGTKLELKLRVFSSVVPVLQKVNSTTTKPVLRTPSPVHPTGTSQPQRPEDCRPRGSVKGTGLDFACDIYIWAPLAGICVALLLSLIITLICYHRQLWTNSRRNRLLQSDYMNMTPRRPGLTRKPYQPYAPARDFAAYRPRAKFSRSAETAANLQDPNQLYNELNLGRREEYDVLEKKRARDPEMGGKQQRRRNPQEGVYNALQKDKMAEAYSEIGTKGERRRGKGHDGLYQGLSTATKDTYDALHMQTLAPR
notes: as for B1
binding result: binds
